# Data: PMC5063806, “Data for peptide-binding assay with oriented immobilization of GRP78 in Biacore” (Data in Brief, 2016)
# Target: T1, human GRP78, N-His-tagged (human, UniProt P11021 19-654)
# T1 construct: GRP78, human; 6-His tag at the N-terminus; also called N-His-tagged GRP78; not shown: His6, N-terminal, kept
# Assay: SPR; modified protocol, Biacore X: N-His-tagged GRP78 covalently immobilised (EDC/NHS, Ni2+ orientation, about 5000~6000 RU) on chip NTA; running buffer HBS-P pH 7.4 with 1 mM glycine; L-peptide 6.25-100 uM; both peptides at 50 uM in Fig. 3; fit with BIAevaluation 4.1, default settings
# Details: both partners purified
# T1 sequence (P11021 19-654): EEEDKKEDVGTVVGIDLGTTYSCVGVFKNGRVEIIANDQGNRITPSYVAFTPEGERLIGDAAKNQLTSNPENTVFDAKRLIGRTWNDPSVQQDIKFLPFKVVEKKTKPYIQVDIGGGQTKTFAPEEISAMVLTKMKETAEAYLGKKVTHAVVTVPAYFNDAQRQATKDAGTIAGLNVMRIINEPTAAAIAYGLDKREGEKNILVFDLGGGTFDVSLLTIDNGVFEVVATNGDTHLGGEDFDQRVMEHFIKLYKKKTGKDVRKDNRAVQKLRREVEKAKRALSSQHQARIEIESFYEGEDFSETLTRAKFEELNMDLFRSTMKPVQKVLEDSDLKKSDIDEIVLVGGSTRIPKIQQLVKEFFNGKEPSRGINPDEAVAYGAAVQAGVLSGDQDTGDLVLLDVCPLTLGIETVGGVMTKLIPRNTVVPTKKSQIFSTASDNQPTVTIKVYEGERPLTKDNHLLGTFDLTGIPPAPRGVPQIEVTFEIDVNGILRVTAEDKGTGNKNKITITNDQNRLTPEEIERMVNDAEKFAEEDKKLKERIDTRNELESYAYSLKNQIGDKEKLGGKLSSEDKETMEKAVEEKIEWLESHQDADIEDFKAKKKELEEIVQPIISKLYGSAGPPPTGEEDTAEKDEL
binder,measurement,value
RLLDTNRPLLPY (Probably synthetic) [L-peptide (RLLDTNRPLLPY)],Kd,~10 µM
